Measurements published in article PMC7015052, “Transferrin plays a central role in coagulation balance by interacting with clotting factors” (Cell Research, 2019).
Values belong to the molecule of their own block, whether it stands above or below them.

What was measured:
human α-thrombin (human) = human α-thrombin (human) (UniProt P00734)
apo-transferrin [1] = target: T1, apo-transferrin (human, UniProt P02787 20-698); assay: SPR; settings: plateau of the association phase, read off a plot
T1 construct: transferrin (serotransferrin), human, iron-free state; Several paragraphs and legends say only 'transferrin' where the text says apo-transferrin for the same panels; rows told of 'transferrin' alone are tied to this molecule; also called Tf; TRF; source: bought: Sigma (purity greater than 98%)

apo-transferrin [2] = target: T1, apo-transferrin; assay: SPR; CM5 chip coupled with 100 RU of transferrin; binding molar ratio from the saturation RU of the flowing phase and the RU of the immobilised phase; settings: for stoichiometry N: both partners purified
apo-transferrin [3] = target: T1, apo-transferrin; assay: SPR; BIAcore 2000; apo-transferrin or holo-transferrin immobilised on a CM5 chip (~2000 RU); serial concentrations of thrombin, FXIIa, fibrinogen, AT, prothrombin or FXII in Tris–HCl buffer (20 mM, pH 7.4) at 10 μL/min
apo-transferrin [4] = target: T1, apo-transferrin; assay: SPR; transferrin with synthetic peptides (TH16, FX18, RCL19 and their scrambled controls); settings: both partners purified

Molecule: apo-transferrin (from UniProt P02787 20-698) (natural protein)
- enhancement of the enzymatic activity of thrombin (chromogenic substrate) by transferrin at 0.2, 1 and 5 μM (human α-thrombin (human)): 1.8 fold
- increase of fibrinopeptide A released from fibrinogen by thrombin after 30 min with transferrin at 0.2, 1 and 5 μM (RP-HPLC) (human α-thrombin (human)): 1.2 fold
- increase of fibrinopeptide B released from fibrinogen by thrombin after 30 min with transferrin at 0.2, 1 and 5 μM (RP-HPLC) (human α-thrombin (human)): 4.2 fold

Molecule: FXII (natural protein)
- Kd (apo-transferrin [3]): 40 nM
- koff (apo-transferrin [3]): 0.0012 s⁻¹
- kon (apo-transferrin [3]): 30000 M⁻¹ s⁻¹

Molecule: RIGKHSRTRYERNIEK (source: synthetic peptide) [TH16]
- Kd (apo-transferrin [4]): 97 nM
- koff (apo-transferrin [4]): 0.0003 s⁻¹
- kon (apo-transferrin [4]): 3100 M⁻¹ s⁻¹

Molecule: RRNHSCEPCQTLAVRSYR (source: synthetic peptide) [FX18]
- Kd (apo-transferrin [4]): 143 nM
- koff (apo-transferrin [4]): 0.0004 s⁻¹
- kon (apo-transferrin [4]): 2800 M⁻¹ s⁻¹

B1: RCL19 (peptide)
peptide: EAAASTAVVIAGRSLNPNR
notes: from the reactive center loop (RCL) of antithrombin; also called synthetic peptide from the RCL of AT; source: synthetic peptide
- Kd (apo-transferrin [4]): 556 nM
- koff (apo-transferrin [4]): 0.001 s⁻¹
- kon (apo-transferrin [4]): 1800 M⁻¹ s⁻¹

Next, values leading:

- response (apo-transferrin [1]; 25 nM trace, parent: est. 9): 2.5 RU
- response (apo-transferrin [1]; 50 nM trace, parent: est. 14): 5.5 RU
Molecule: wild-type thrombin (from UniProt P00734) R117A; R122A

- stoichiometry N (transferrin per thrombin (molar ratio)) (apo-transferrin [2]): 1
- Kd (apo-transferrin [3]): 7.7 nM
Molecule: human α-thrombin (from UniProt P00734 364-622) (enzyme)

- stoichiometry N (apo-transferrin [2]): 1 transferrin per FXIIa (molar ratio)
- Kd (apo-transferrin [3]; both partners purified): 13.9 nM
- koff (apo-transferrin [3]; both partners purified): 0.0025 s⁻¹
- kon (apo-transferrin [3]; both partners purified): 180000 M⁻¹ s⁻¹
B2: human α-FXIIa (enzyme)
chain 1: IPPWEAPKEHKYKAEEHTVVLTVTGEPCHFPFQYHRQLYHKCTHKGRPGPQPWCATTPNFDQDQRWGYCLEPKKVKDHCSKHSPCQKGGTCVNMPSGPHCLCPQHLTGNHCQKEKCFEPQLLRFFHKNEIWYRTEQAAVARCQCKGPDAHCQRLASQACRTNPCLHGGRCLEVEGHRLCHCPVGYTGAFCDVDTKASCYDGRGLSYRGLARTTLSGAPCQPWASEATYRNVTAEQARNWGLGGHAFCRNPDNDIRPWCFVLNRDRLSWEYCDLAQCQTPTQAAPPTPVSPRLHVPLMPAQPAPPKPQPTTRTPPQSQTPGALPAKREQPPSLTRNGPLSCGQRLRKSLSSMTR
chain 2: VVGGLVALRGAHPYIAALYWGHSFCAGSLIAPCWVLTAAHCLQDRPAPEDLTVVLGQERRNHSCEPCQTLAVRSYRLHEAFSPVSYQHDLALLRLQEDADGSCALLSPYVQPVCLPSGAARPSETTLCQVAGWGHQFEGAEEYASFLQEAQVPFLSLERCSAPDVHGSSILPGMLCAGFLEGGTDACQGDSGGPLVCEDQAAERRLTLQGIISWGSGCGDRNKPGVYTDVAYYLAWIREHTVS
notes: factor XIIa heavy chain, cut product of human factor XII; factor XIIa light chain (protease domain), cut product of human factor XII; also called factor XIIa; source: bought: Enzyme Research Laboratories (HFXIIa 1212a)

- stoichiometry N (apo-transferrin [2]): 4 apo-transferrin per fibrinogen (molar ratio)
B3: fibrinogen (natural protein)
chain 1: ADSGEGDFLAEGGGVRGPRVVERHQSACKDSDWPFCSDEDWNYKCPSGCRMKGLIDEVNQDFTNRINKLKNSLFEYQKNNKDSHSLTTNIMEILRGDFSSANNRDNTYNRVSEDLRSRIEVLKRKVIEKVQHIQLLQKNVRAQLVDMKRLEVDIDIKIRSCRGSCSRALAREVDLKDYEDQQKQLEQVIAKDLLPSRDRQHLPLIKMKPVPDLVPGNFKSQLQKVPPEWKALTDMPQMRMELERPGGNEITRGGSTSYGTGSETESPRNPSSAGSWNSGSSGPGSTGNRNPGSSGTGGTATWKPGSSGPGSTGSWNSGSSGTGSTGNQNPGSPRPGSTGTWNPGSSERGSAGHWTSESSVSGSTGQWHSESGSFRPDSPGSGNARPNNPDWGTFEEVSGNVSPGTRREYHTEKLVTSKGDKELRTGKEKVTSGSTTTTRRSCSKTVTKTVIGPDGHKEVTKEVVTSEDGSDCPEAMDLGTLSGIGTLDGFRHRHPDEAAFFDTASTGKTFPGFFSPMLGEFVSETESRGSESGIFTNTKESSSHHPGIAEFPSRGKSSSYSKQFTSSTSYNRGDSTFESKSYKMADEAGSEADHEGTHSTKRGHAKSRPVRGIHTSPLGKPSLSP
chain 2: QGVNDNEEGFFSARGHRPLDKKREEAPSLRPAPPPISGGGYRARPAKAAATQKKVERKAPDAGGCLHADPDLGVLCPTGCQLQEALLQQERPIRNSVDELNNNVEAVSQTSSSSFQYMYLLKDLWQKRQKQVKDNENVVNEYSSELEKHQLYIDETVNSNIPTNLRVLRSILENLRSKIQKLESDVSAQMEYCRTPCTVSCNIPVVSGKECEEIIRKGGETSEMYLIQPDSSVKPYRVYCDMNTENGGWTVIQNRQDGSVDFGRKWDPYKQGFGNVATNTDGKNYCGLPGEYWLGNDKISQLTRMGPTELLIEMEDWKGDKVKAHYGGFTVQNEANKYQISVNKYRGTAGNALMDGASQLMGENRTMTIHNGMFFSTYDRDNDGWLTSDPRKQCSKEDGGGWWYNRCHAANPNGRYYWGGQYTWDMAKHGTDDGVVWMNWKGSWYSMRKMSMKIRPFFPQQ
chain 3: YVATRDNCCILDERFGSYCPTTCGIADFLSTYQTKVDKDLQSLEDILHQVENKTSEVKQLIKAIQLTYNPDESSKPNMIDAATLKSRKMLEEIMKYEASILTHDSSIRYLQEIYNSNNQKIVNLKEKVAQLEAQCQEPCKDTVQIHDITGKDCQDIANKGAKQSGLYFIKPLKANQQFLVYCEIDGSGNGWTVFQKRLDGSVDFKKNWIQYKEGFGHLSPTGTTEFWLGNEKIHLISTQSAIPYALRVELEDWNGRTSTADYAMFKVGPEADKYRLTYAYFAGGDAGDAFDGFDFGDDPSDKFFTSHNGMQFSTWDNDNDKFEGNCAEQDGSGWWMNKCHAGHLNGVYYQGGTYSKASTPNGYDNGIIWATWKTRWYSMKKTTMKIIPFNRLTIGEGQQHHLGGAKQAGDV
notes: fibrinogen alpha chain; fibrinogen beta chain; fibrinogen gamma chain; the SPR and native gel methods say only 'fibrinogen'; also called factor I; source: bought: Cayman (16088); copies: + +
